Measurements taken from article PMC11985657.

Target: Fc-FGF21 from E. coli (UniProt Q9NSA1)
Assay: BLI

Human KLB (from UniProt Q86Z14 1-996) (receptor)
Kd: 10.1 nM
